Source: the supplement of paper PMC9170038

Assays:
MS2 coat protein [1] = assay: apparent KD of MS2 coat protein, switch ON state; designed switch direction (-1 OFF switch, 1 ON switch): -1; higher = weaker reporter binding; details: FMN input: 0 or 200 uM; Eterna round: R93 (includes R88 designs)
Outline: (§1)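 Designed RNA switches were made by on-chip transcription from Illumina sequencing clusters and then titrated with SNAP-549-labelled MS2 coat protein. Twofold steps ran from 0.7 or 1.5 nM to 3 µM, each lasting 0.8–1.5 h early and 10–20 min late, in 100 mM Tris-HCl pH 7.5, 80 mM KCl, 4 mM MgCl2, without or with constant ligand. Apparent KD is the per-design median of normalised cluster binding-curve fits.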

MS2 coat protein [2] = assay: apparent KD of MS2 coat protein, switch OFF state (with FMN for OFF switches, without FMN for ON switches); designed switch direction (-1 OFF switch, 1 ON switch): -1; higher = weaker reporter binding; details: FMN input: 0 or 200 uM; Eterna round: R93 (includes R88 designs)
Outline: as §1

MS2 coat protein [3] = assay: apparent KD of MS2 coat protein; higher = weaker reporter binding; details: Eterna round: R107
Outline: as §1

[4] = input ligand: theophylline 20 uM
[5] = input ligand: tryptophan 2.4 mM
[6] = input ligand: theophylline 2 mM

Sequence | apparent KD of MS2 coat protein (MS2 coat protein [1]) [nM] | apparent KD of MS2 coat protein (MS2 coat protein [2]) [nM] | apparent KD of MS2 coat protein (MS2 coat protein [3]; input ligand: arginine 13.2 mM) [nM] | apparent KD of MS2 coat protein (MS2 coat protein [3]; [4]) [nM] | apparent KD of MS2 coat protein (MS2 coat protein [3]; [5]) [nM] | apparent KD of MS2 coat protein (MS2 coat protein [3]; [6]) [nM] | apparent KD of MS2 coat protein (MS2 coat protein [3]; input ligand: none) [nM]
GAAAAACAUGAGGAUCACCCAUGUCAGGAUAUACAAAAAUAAAUAAAAAUAAAAUAAAGUAGAAGGGACAAAAG [Mat - Same state - Mayanna Mod - D110] | 52.9 | 57.3 |  |  |  |  | 
AACAAAUGAGGAUAUACAAACAAAAAAAACAAACAAAACAAACAUGAGGAUCACCCAUGUAGAAGGCAUAAACA [JR_Exc002_Sub901] | 24.8 | 24.5 |  |  |  |  | 
CUCUUGUAAGGAUAUGACUACAUAAAAAAAAAAAAAUGUAGUCAGAAGGUACAUGAGGAUCACCCAUGUACUAA [Brourd - Exclusion 4 - Sub 2] | 20.8 | 26.2 |  |  |  |  | 
AAGAAGUGAGGAUAUGCUGCUCGUCACUUGCGUGAUGAGUAGCAGAAGGCACAUGAGGAUCACCCAUGUAAAAA [Mat - Exaclusion 4 - Eli mod - D2] | 34.8 | 45.7 |  |  |  |  | 
AGUCAGAGAGGAUAUACAUAGGAAAAAAAAGUAAGAUCCCUACAUGAGGAUCACCCAUGUAGAAGGCUCUGACA [Ex2 Design 140: Sub-opt 4] | 141 | 87.5 |  |  |  |  | 
GCUUGUCUAGGAUAUACAUGAGGAUCACCCAUGUGAGAGAAAAAAGUGAGAAAGAAAAGUAGAAGGAGGUGAGG [salish99-ex3-81] | 28.4 | 29.7 |  |  |  |  | 
AAAAAACAUGAGGAUCACCCAUGUGAGGAUAUAGGAAAAAAAAAAAAAAAAAAAAAAACUAGAAGGCACAAAAA [Gess I got it^^] | 35.2 | 41.7 |  |  |  |  | 
AACAGGAGAGGAUAUACAUGAGGAUCACCCAUGUAGGAAACAAGCAGAGUACCAAAAAGUAGAAGGCUCAUGGA [Ruby 32] | 28.1 | 43.1 |  |  |  |  | 
AAGAAGUCAGGAUAUGCUGCUCGUCACAAAAGUGAUGAGUAGCAGAAGGGACAUGAGGAUCACCCAUGUAAAAA [Opal 33] | 49.1 | 42 |  |  |  |  | 
AUGGUACAUGAGGAUCACCCAUGUCAGGAUAUCGGCUGUGACAUGAAAAAAAUGUUAGUGAGAAGGGACUGUAA [EX1 Malc#18 Mod 4 - Jieux - Exclusion 1] | 85.4 | 102 |  |  |  |  | 
AGUCGGCGAGGAUAUACAUGAGGAUCACCCAUGUGAGAGAAAAAAGUGAGCAAGAAAUGUAGAAGGCGCUGACA [JL Lego Mod 3] | 156 | 61.9 |  |  |  |  | 
AAAUAGCAAGGAUAUACAUGAGGAUCACCCAUGUGACCCAGGUAUGGCAUAGACUAGAGUAGAAGGUGCAAAUA [Mod 5 of Ex 3 Tesla 8 - Jieux - Exclusion 3] | 88.1 | 114 |  |  |  |  | 
AGCUAGUCAGGAUAUACGAACAUGUCAGAAGACGUAAGGGAACAUGAGGAUCACCCAUGUAGAAGGGACUAGCA [Diamond 48] | 33.1 | 75 |  |  |  |  | 
AAAAAACAUGAGGAUCACCCAUGUGAGGAUAUCAAAUAAAGGCACAUGAGAAGGCAUAUGAGAAGGCACAUGAA [Meechl MS2 Ex1 2] | 41.4 |  |  |  |  |  | 
CGACACCAGGCAAUCCAUCACCCGGCUGAUACCAGCUCUUUUGGAAGCCCUUGGCAGCAGAGAACAUGAGGAUCACCCAUGUCAG [theeternabot_exclusion_MS2_Theo_A_18] |  |  | 14.5 | 16.7 | 17 |  | 
GAUUUAACAAAAGUUAGAUCAGUGGGUGAACGAGGACCGGUACGGCCGCCACUCGGACAUGAGGAUCACCCAUGUCCAUGUGAAA [AstrosExyTryA#20] |  |  | 15.3 | 19.4 |  | 18.6 | 
ACGAUAGGACUUGAGGAUCACCCAGGUGAUACCAGCCUGGAAACAGGCCCUUGGCAGCACUAAUACUCCAAUAACCUAUCGAAUA [TheoAX 16 #MicroSwitchBubble #AlternativeMS2] |  |  | 341 | 347 | 332 | 417 | 195
UUUAAAAUAACAGAUACCAGCGUGUUAUAAAACAUGAGGAUCACCCAUGUAGUGAUCAAGCGCCCUUGGCAGCUGGUAUUUUAGG [7.E] |  |  | 186 | 161 | 132 |  | 
CCCUCCAGAACGGCCGCCACUAAAGGGUUGUGUGCGACUCCGGAACAUGAGGAUCACCCAUGUCUUAGGACCGGGUUCCCUUCUA [theeternabot_sameState_MS2_Trp_B_30] |  |  | 58.9 | 81.9 |  | 82.2 | 
AAGGUGAUCCCAGAUACCAGCUCAACAUGAGGAUCACCCAUGUACGGGACGAAAGUCCCGGGCCCUUGGCAGCUGGGUUGCCAAG [SSTheo B #19] |  |  | 42.2 | 299 | 185 |  | 
CCUAUGCAGUCGGCCGCCACUGUACAUGAGGAUCACCCAUGUUCUAAUAUAAUAAGAACUGAAAUCAGGACCGGGACUGUAUAGG [Ex Tryptophan B 2] |  |  | 1660 | 27.8 | 19.3 | 19.7 | 20.1
CUCUGAGUGAGUAAUCACUCAGAGGCGGAUACCAGCGAGGUCCAUCGCCCUUGGCAGCCGAACAUGAGGAUCACCCAUGUCGGUA [#1 Same State - Theophylline A Attempt #24 (HarryS)] |  |  | 8.82 | 12.2 | 11.7 |  | 
AGGUAUGAUCCGGAUACCAGCGAACAUGAGGAUCACCCAUGUGACCUGAGAUAGGCUCUACGCCCUUGGCAGCCGCGAUCGCAGA [Same State Theophylline B GF11] |  |  | 10.1 | 14.2 | 12.5 | 9.63 | 11.4
CGGUUUGUGAUGGAUACCAGCAGAGAAAAUGUUUAUCCUGACAUGAGGAUCACCCAUGUGUGCCCUUGGCAGCUGUUGUGGGCUG [8.X] |  |  | 57.3 | 85.7 | 51.1 |  | 
UUUUACGCAAGUAAUUCCCGGGAACCGGAUACCAGCUCCUCCAACAGCCCUUGGCAGCCGACCACAUGAGGAUCACCCAUGUUUC [theeternabot_exclusion_MS2_Theo_A_28] |  |  | 12 | 16.1 | 12.7 |  | 
UCGCACAUGAGGAUCACCCAUGUACUAGAUACCAGUGACGCGGUGCACCCUUGGCAGCUGGUGCUGAGUGAUGGUUCCCUCGGCA [Exclusion Theophylline A GF8] |  |  | 53.5 | 137 | 112 |  | 
UAUAUAUAUAUGGAUACCAGCAGAGAAAACGUUUAUCCUAACAUGAGGAUCACCCAUGUAUGCCCUUGGCAGCUGUGUAUAUAUA [8.H] |  |  | 16.7 | 26.5 | 19.2 |  | 
UAUAUAUAUAUUGAUACCAGCAGAGAAAACGUUUAUCCUAACAUGAGGAUCACCCAUGUAUGCCCUUGGCAGCGAUAUAUAUAUA [8.C] |  |  | 22.2 | 31.3 | 21.7 |  | 
GUCUGAGUCUGAAGGAGCGACAUGAGGAUCACCCAUGUCUCCCGUUAUGGGAGUUCCUUAGGUCAGGUAGGUCGCAGACUCAGAC [#1 Exclusion - Arginine B Attempt #26 (Inspired by Omei)] |  |  | 60.9 | 139 | 108 | 172 | 145
AAACGCCACGGAAGGAGCGACAUGAGGAUCACCCAUGUAGAUUUGGCGGAUGCACCCUCCUGUCAGGUAGGUCGCCGUGCGAUAA [XArg-B25] |  |  | 33.9 | 109 | 86.6 | 89 | 60.8
